In patent US20250171806A1 (BROAD INSTITUTE, published 2025):

Legend:
Experiment in all cases: co-immunoprecipitation from HEK293 lysate: Flag IP of NS3, HA Western blot
[1] = biological target: T1, HA-tagged Galleria mellonella (Gm) densovirus capsid protein VP1 (Galleria mellonella (Gm) densovirus, UniProt Q90125 1-811)
T1 construct: also called Gm VP1; GmDNV capsid VP protein 1
T1 sequence: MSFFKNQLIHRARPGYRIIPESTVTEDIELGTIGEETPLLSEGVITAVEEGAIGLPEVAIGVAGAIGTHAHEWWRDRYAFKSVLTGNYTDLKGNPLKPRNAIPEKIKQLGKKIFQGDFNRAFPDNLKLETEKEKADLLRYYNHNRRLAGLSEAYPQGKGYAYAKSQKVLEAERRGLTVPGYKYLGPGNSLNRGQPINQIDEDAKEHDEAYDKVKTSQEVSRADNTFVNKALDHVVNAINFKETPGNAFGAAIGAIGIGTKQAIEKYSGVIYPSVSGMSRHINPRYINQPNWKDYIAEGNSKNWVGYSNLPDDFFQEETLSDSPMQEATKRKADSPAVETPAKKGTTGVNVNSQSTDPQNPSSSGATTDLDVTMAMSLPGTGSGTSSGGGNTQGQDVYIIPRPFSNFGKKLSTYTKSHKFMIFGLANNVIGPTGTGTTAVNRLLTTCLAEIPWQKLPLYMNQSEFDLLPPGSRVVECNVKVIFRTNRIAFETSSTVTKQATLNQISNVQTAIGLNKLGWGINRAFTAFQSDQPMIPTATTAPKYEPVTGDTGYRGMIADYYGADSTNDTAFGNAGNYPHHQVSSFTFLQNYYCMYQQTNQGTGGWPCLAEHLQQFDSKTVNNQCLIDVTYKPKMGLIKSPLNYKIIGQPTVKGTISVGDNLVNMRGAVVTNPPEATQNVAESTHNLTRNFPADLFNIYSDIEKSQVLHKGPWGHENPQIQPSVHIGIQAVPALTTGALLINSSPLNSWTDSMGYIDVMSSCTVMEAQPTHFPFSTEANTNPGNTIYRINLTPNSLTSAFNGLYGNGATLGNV

[2] = biological target: T2, HA-tagged Galleria mellonella (Gm) densovirus capsid protein VP4 (Galleria mellonella (Gm) densovirus, UniProt Q90125 375-811)
T2 construct: also called Gm VP4; GmDNV capsid VP protein 4
T2 sequence: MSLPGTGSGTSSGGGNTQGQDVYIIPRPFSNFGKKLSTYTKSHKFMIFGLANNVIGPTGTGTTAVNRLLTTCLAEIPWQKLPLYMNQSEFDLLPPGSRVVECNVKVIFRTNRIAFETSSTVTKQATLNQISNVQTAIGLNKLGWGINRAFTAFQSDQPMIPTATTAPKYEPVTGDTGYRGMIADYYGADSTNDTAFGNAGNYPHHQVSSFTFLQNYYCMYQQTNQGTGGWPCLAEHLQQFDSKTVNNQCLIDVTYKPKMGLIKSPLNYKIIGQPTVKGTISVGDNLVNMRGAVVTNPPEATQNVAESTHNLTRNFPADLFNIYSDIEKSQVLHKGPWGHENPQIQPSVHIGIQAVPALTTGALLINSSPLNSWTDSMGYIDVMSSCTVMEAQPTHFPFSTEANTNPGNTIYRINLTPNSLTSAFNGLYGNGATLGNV

[3] = biological target: T3, HA-tagged Galleria mellonella (Gm) densovirus capsid protein VP2 (Galleria mellonella (Gm) densovirus, UniProt Q90125 277-811)
T3 construct: also called Gm VP2; GmDNV capsid VP protein 2
T3 sequence: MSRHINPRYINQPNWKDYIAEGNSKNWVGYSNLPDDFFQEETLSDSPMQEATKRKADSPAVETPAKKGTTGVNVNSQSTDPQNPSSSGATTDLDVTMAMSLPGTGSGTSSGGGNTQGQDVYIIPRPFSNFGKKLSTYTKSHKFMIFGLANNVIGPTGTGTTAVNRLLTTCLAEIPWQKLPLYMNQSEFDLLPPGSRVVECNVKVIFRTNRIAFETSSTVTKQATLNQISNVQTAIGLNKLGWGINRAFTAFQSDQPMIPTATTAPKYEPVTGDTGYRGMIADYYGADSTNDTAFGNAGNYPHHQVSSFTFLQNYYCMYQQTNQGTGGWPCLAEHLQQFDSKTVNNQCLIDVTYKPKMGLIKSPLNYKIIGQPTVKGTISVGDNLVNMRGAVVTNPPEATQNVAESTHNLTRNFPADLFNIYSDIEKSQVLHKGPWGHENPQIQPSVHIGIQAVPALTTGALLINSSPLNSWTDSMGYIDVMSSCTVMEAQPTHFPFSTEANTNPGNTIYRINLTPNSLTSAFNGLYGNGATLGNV

[4] = biological target: T4, HA-tagged Galleria mellonella (Gm) densovirus capsid protein VP3 (Galleria mellonella (Gm) densovirus, UniProt Q90125 324-811)
T4 construct: also called Gm VP3; GmDNV capsid VP protein 3
T4 sequence: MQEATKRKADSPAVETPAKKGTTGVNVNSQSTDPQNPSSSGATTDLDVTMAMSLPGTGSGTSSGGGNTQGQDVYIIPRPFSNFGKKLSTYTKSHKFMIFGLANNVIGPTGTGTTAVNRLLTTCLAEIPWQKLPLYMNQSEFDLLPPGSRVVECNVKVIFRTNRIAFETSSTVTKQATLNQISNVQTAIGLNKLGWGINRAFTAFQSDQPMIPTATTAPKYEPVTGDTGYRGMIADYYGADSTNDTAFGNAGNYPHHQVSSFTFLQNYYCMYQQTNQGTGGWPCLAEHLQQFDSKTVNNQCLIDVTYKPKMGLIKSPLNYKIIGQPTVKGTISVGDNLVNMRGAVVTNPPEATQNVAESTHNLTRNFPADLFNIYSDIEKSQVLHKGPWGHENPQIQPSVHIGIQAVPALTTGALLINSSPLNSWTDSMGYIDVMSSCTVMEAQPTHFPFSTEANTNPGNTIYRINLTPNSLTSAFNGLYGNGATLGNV

Measured: binding result

B1: Flag-tagged Galleria mellonella (Gm) densovirus nonstructural protein NS3 (other)
chain: MSIAKFLYVRRLFEKVYNPKSLFYEAYKCARLNGLDMSILPKPILNMSHDMDTQIIACGEDINHTLAIEELEHWDWSKQNRLPFQLYLAVMNLTEIPEWLDETMLIECVYYFKELINHRDPYDTDELNTWNANGKPFKTMWKICKFCYNNCEDPDDYRFIYNRTVFVEDVEEIITRLQDSDSWCQLCHTCPLFNISAIYDNSPNNKQRRYSSSDDDDYMSNSFFVKHPNSRH
notes: also called Gm NS3; GmNS3; not shown: Flag tag, at either the N or the C terminus
binds: all assays above

B2: Gm NS3 with C-terminal Flag tag (other)
chain: B1 chain
notes: also called NS3 when the Flag tag was present on the C-terminus; not shown: C-terminal Flag tag
binds: all assays above
